Like-named read-outs stand apart in the source and are kept apart here.
Assays:
Assay in all cases: cell-based or functional assay
[1] = target: T1, human IL-21 receptor (IL-21R) on cells (human, UniProt Q9HBE5 20-538; P31785 23-369)
[2] = target: T1, human IL-21 receptor (IL-21R) on cells; remark: listed apart in the source
[3] = target: T1, human IL-21 receptor (IL-21R) on cells; remark: listed apart in the source
[4] = target: T1, human IL-21 receptor (IL-21R) on cells; remark: listed apart in the source
[5] = target: T1, human IL-21 receptor (IL-21R) on cells; remark: listed apart in the source

T1 sequence (Q9HBE5 20-538, chain 1 of 2): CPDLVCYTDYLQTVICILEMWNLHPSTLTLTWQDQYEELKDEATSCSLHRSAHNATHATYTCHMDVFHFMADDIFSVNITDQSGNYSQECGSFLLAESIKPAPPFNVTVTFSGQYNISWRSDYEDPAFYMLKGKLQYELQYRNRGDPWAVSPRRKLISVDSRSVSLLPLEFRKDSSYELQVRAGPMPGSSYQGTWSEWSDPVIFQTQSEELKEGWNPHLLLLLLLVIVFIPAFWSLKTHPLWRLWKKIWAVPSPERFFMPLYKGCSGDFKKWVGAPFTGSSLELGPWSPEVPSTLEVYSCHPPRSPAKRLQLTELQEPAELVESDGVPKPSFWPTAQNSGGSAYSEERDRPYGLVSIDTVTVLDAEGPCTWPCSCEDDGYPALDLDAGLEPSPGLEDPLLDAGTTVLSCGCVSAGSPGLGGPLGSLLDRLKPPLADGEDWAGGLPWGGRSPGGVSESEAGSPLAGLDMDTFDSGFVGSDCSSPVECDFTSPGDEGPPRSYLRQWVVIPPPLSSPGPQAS
T1 sequence (P31785 23-369, chain 2 of 2): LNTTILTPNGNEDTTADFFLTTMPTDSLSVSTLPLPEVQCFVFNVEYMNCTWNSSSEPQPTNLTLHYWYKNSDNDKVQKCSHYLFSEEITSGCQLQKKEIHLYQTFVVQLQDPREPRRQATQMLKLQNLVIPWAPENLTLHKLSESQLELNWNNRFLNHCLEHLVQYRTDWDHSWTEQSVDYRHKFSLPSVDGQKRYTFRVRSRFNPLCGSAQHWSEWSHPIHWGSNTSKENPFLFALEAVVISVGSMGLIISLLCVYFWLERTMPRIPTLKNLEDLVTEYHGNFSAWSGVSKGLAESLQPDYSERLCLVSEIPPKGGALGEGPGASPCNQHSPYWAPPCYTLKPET

Row | Binder | EC50B, pSTAT3+ Jurkat PD-1 cells, PD-1 blocked [1] | EC50NB, pSTAT3+ Jurkat PD-1 cells [1] | Δ [2] | further results
1 | PAP722 (bispecific antibody, human IgG1, kappa, lambda, L234A L235A) heavy 1: EVQLLESGGGLVQPGGSLRLSCAASGFTFSINAMTWVRQAPGKGLEWVSTISGSGFSTYYADSLKGRFTISRDNSKNTLYLQMNSLRAEDTAVYYCAKEVYGDYWGQGTLVTVSSASTKGPSVFPLAPSSKSTSGGTAALGCLVKDYFPEPVTVSWNSGALTSGVHTFPAVLQSSGLYSLSSVVTVPSSSLGTQTYICNVNHKPSNTKVDKRVEPKSCDKTHTCPPCPAPEAAGGPSVFLFPPKPKDTLMISRTPEVTCVVVDVSHEDPEVKFNWYVDGVEVHNAKTKPREEQYNSTYRVVSVLTVLHQDWLNGKEYKCKVSNKALAAPIEKTISKAKGQPREPQVCTLPPSREEMTKNQVSLSCAVKGFYPSDIAVEWESNGQPENNYKTTPPVLDSDGSFFLVSKLTVDKSRWQQGNVFSCSVMHEALHNHYTQKSLSLSPGK light 1: not shown heavy 2: QVQLQESGPGLVKPSETLSLTCTVSGGSISSDYWGWIRQPPGKGLEWIGYISSRGSTNYNPSLKRRVTISVDTSRNQFSLKLSSVTAADTAVYYCARSAGVADFDFWGQGTLVTVSSASTKGPSVFPLAPSSKSTSGGTAALGCLVKDYFPEPVTVSWNSGALTSGVHTFPAVLQSSGLYSLSSVVTVPSSSLGTQTYICNVNHKPSNTKVDKRVEPKSCDKTHTCPPCPAPEAAGGPSVFLFPPKPKDTLMISRTPEVTCVVVDVSHEDPEVKFNWYVDGVEVHNAKTKPREEQYNSTYRVVSVLTVLHQDWLNGKEYKCKVSNKALAAPIEKTISKAKGQPREPQVYTLPPCREEMTKNQVSLWCLVKGFYPSDIAVEWESNGQPENNYKTTPPVLDSDGSFFLYSKLTVDKSRWQQGNVFSCSVMHEALHNHYTQKSLSLSPGK light 2: not shown | 1.97 nM | 19 pM | 4.3 | –
2 | YWW798 (bispecific antibody, human IgG1, kappa, lambda, L234A L235A) heavy 1: EVQLLESGGGLVQPGGSLRLSCAASGFTFSINAMTWVRQAPGKGLEWVSTISGSGFSTYYADSLKGRFTISRDNSKNTLYLQMNSLRAEDTAVYYCAKEVYGDYWGQGTLVTVSSASTKGPSVFPLAPSSKSTSGGTAALGCLVKDYFPEPVTVSWNSGALTSGVHTFPAVLQSSGLYSLSSVVTVPSSSLGTQTYICNVNHKPSNTKVDKRVEPKSCDKTHTCPPCPAPEAAGGPSVFLFPPKPKDTLMISRTPEVTCVVVDVSHEDPEVKFNWYVDGVEVHNAKTKPREEQYNSTYRVVSVLTVLHQDWLNGKEYKCKVSNKALAAPIEKTISKAKGQPREPQVCTLPPSREEMTKNQVSLSCAVKGFYPSDIAVEWESNGQPENNYKTTPPVLDSDGSFFLVSKLTVDKSRWQQGNVFSCSVMHEALHNHYTQKSLSLSPGK light 1: not shown heavy 2: QVQLQESGPGLVKPSETLSLTCTVSGGSISSDYWGWIRQPPGKGLEWIGYISYSGSTNYNPSLKSRVTISVDTSRNQFSLKLSSVTAADTAVYYCARSAGVTDFDAWGQGTLVTVSSASTKGPSVFPLAPSSKSTSGGTAALGCLVKDYFPEPVTVSWNSGALTSGVHTFPAVLQSSGLYSLSSVVTVPSSSLGTQTYICNVNHKPSNTKVDKRVEPKSCDKTHTCPPCPAPEAAGGPSVFLFPPKPKDTLMISRTPEVTCVVVDVSHEDPEVKFNWYVDGVEVHNAKTKPREEQYNSTYRVVSVLTVLHQDWLNGKEYKCKVSNKALAAPIEKTISKAKGQPREPQVYTLPPCREEMTKNQVSLWCLVKGFYPSDIAVEWESNGQPENNYKTTPPVLDSDGSFFLYSKLTVDKSRWQQGNVFSCSVMHEALHNHYTQKSLSLSPGK light 2: not shown | – | – | 3.45 | EC50B, pSTAT3+ Jurkat PD-1 cells, PD-1 blocked [3]: 0.526 nM; EC50NB, pSTAT3+ Jurkat PD-1 cells [3]: 4 pM
3 | ZNP367 (bispecific antibody, human IgG1, kappa, lambda, L234A L235A) heavy 1: EVQLLESGGGLVQPGGSLRLSCAASGFTFSINAMTWVRQAPGKGLEWVSTISGSGFSTYYADSLKGRFTISRDNSKNTLYLQMNSLRAEDTAVYYCAKEVYGDYWGQGTLVTVSSASTKGPSVFPLAPSSKSTSGGTAALGCLVKDYFPEPVTVSWNSGALTSGVHTFPAVLQSSGLYSLSSVVTVPSSSLGTQTYICNVNHKPSNTKVDKRVEPKSCDKTHTCPPCPAPEAAGGPSVFLFPPKPKDTLMISRTPEVTCVVVDVSHEDPEVKFNWYVDGVEVHNAKTKPREEQYNSTYRVVSVLTVLHQDWLNGKEYKCKVSNKALAAPIEKTISKAKGQPREPQVCTLPPSREEMTKNQVSLSCAVKGFYPSDIAVEWESNGQPENNYKTTPPVLDSDGSFFLVSKLTVDKSRWQQGNVFSCSVMHEALHNHYTQKSLSLSPGK light 1: not shown heavy 2: QVQLQESGPGLVKPSETLSLTCTVSGGSISSDFWGWIRQPPGKGLEWIGYISSRGSTNYNPSLKRRVTISVDTSRNQFSLKLSSVTAADTAVYYCARSAGVTDFDFWGQGTLVTVSSASTKGPSVFPLAPSSKSTSGGTAALGCLVKDYFPEPVTVSWNSGALTSGVHTFPAVLQSSGLYSLSSVVTVPSSSLGTQTYICNVNHKPSNTKVDKRVEPKSCDKTHTCPPCPAPEAAGGPSVFLFPPKPKDTLMISRTPEVTCVVVDVSHEDPEVKFNWYVDGVEVHNAKTKPREEQYNSTYRVVSVLTVLHQDWLNGKEYKCKVSNKALAAPIEKTISKAKGQPREPQVYTLPPCREEMTKNQVSLWCLVKGFYPSDIAVEWESNGQPENNYKTTPPVLDSDGSFFLYSKLTVDKSRWQQGNVFSCSVMHEALHNHYTQKSLSLSPGK light 2: not shown | – | – | – | EC50B, pSTAT3+ Jurkat PD-1 cells, PD-1 blocked [4]: 0.97 nM; EC50NB, pSTAT3+ Jurkat PD-1 cells [4]: 36 pM
4 | DMT806 (bispecific antibody, human IgG1, kappa, lambda, L234A L235A) heavy 1: EVQLLESGGGLVQPGGSLRLSCAASGFTFSINAMTWVRQAPGKGLEWVSTISGSGFSTYYADSLKGRFTISRDNSKNTLYLQMNSLRAEDTAVYYCAKEVYGDYWGQGTLVTVSSASTKGPSVFPLAPSSKSTSGGTAALGCLVKDYFPEPVTVSWNSGALTSGVHTFPAVLQSSGLYSLSSVVTVPSSSLGTQTYICNVNHKPSNTKVDKRVEPKSCDKTHTCPPCPAPEAAGGPSVFLFPPKPKDTLMISRTPEVTCVVVDVSHEDPEVKFNWYVDGVEVHNAKTKPREEQYNSTYRVVSVLTVLHQDWLNGKEYKCKVSNKALAAPIEKTISKAKGQPREPQVCTLPPSREEMTKNQVSLSCAVKGFYPSDIAVEWESNGQPENNYKTTPPVLDSDGSFFLVSKLTVDKSRWQQGNVFSCSVMHEALHNHYTQKSLSLSPGK light 1: not shown heavy 2: not shown light 2: DIQMTQSPSSVSASVGDRVTITCRASQGISSWLAWYQHKPGKAPKLLIYVASSLQSGVPSRFSGSGSGTDFTLTISSLQPEDFATYYCQQANSFPLTFGGGTKVEIKRTVAAPSVFIFPPSDEQLKSGTASVVCLLNNFYPREAKVQWKVDNALQSGNSQESVTEQDSKDSTYSLSSTLTLSKADYEKHKVYACEVTHQGLSSPVTKSFNRGEC | – | – | 2.79 | EC50B, pSTAT3+ Jurkat PD-1 cells, PD-1 blocked [5]: 12.4 nM; EC50NB, pSTAT3+ Jurkat PD-1 cells [5]: 0.17 nM
5 | YCV364 (bispecific antibody, human IgG1, kappa, lambda, L234A L235A) heavy 1: EVQLLESGGGLVQPGGSLRLSCAASGFTFSINAMTWVRQAPGKGLEWVSTISGSGFSTYYADSLKGRFTISRDNSKNTLYLQMNSLRAEDTAVYYCAKEVYGDYWGQGTLVTVSSASTKGPSVFPLAPSSKSTSGGTAALGCLVKDYFPEPVTVSWNSGALTSGVHTFPAVLQSSGLYSLSSVVTVPSSSLGTQTYICNVNHKPSNTKVDKRVEPKSCDKTHTCPPCPAPEAAGGPSVFLFPPKPKDTLMISRTPEVTCVVVDVSHEDPEVKFNWYVDGVEVHNAKTKPREEQYNSTYRVVSVLTVLHQDWLNGKEYKCKVSNKALAAPIEKTISKAKGQPREPQVCTLPPSREEMTKNQVSLSCAVKGFYPSDIAVEWESNGQPENNYKTTPPVLDSDGSFFLVSKLTVDKSRWQQGNVFSCSVMHEALHNHYTQKSLSLSPGK light 1: not shown heavy 2: QVQLQESGPGLVKPSETLSLTCTVSGGSISSDFWGWIRQPPGKGLEWIGYISSRGSTNYNPSLKRRVTISVDTSRNQFSLKLSSVTAADTAVYYCARSAGVADFDFWGQGTLVTVSSASTKGPSVFPLAPSSKSTSGGTAALGCLVKDYFPEPVTVSWNSGALTSGVHTFPAVLQSSGLYSLSSVVTVPSSSLGTQTYICNVNHKPSNTKVDKRVEPKSCDKTHTCPPCPAPEAAGGPSVFLFPPKPKDTLMISRTPEVTCVVVDVSHEDPEVKFNWYVDGVEVHNAKTKPREEQYNSTYRVVSVLTVLHQDWLNGKEYKCKVSNKALAAPIEKTISKAKGQPREPQVYTLPPCREEMTKNQVSLWCLVKGFYPSDIAVEWESNGQPENNYKTTPPVLDSDGSFFLYSKLTVDKSRWQQGNVFSCSVMHEALHNHYTQKSLSLSPGK light 2: not shown | 1.33 nM | 9 pM | 4.21 | –
